Read-outs that look alike come from different tables or passages of the source. Values belong to the binder of their own block, whether it stands above or below them.
Key:
[1] = target: T1, human PD-1 on PD-1 effector cells (Jurkat T cells, Promega #J1155) (human, UniProt Q15116 25-288); assay: cell-based or functional assay
[2] = target: T2, Neonatal Fc Receptor (FcRn) (UniProt P55899 24-297; P61769 21-119, limits assumed); assay: FcRn binding assay, BIACORE (SPR)
[3] = target: T2, Neonatal Fc Receptor (FcRn); assay: FcRn binding assay, BIACORE (SPR); remark: listed apart in the source
[4] = target: T1, human PD-1 on PD-1 effector cells …; assay: cell-based or functional assay; remark: listed apart in the source
[5] = target: T1, human PD-1 on PD-1 effector cells …; assay: cell-based or functional assay; remark: listed apart in the source
[6] = target: T3, PD-1 protein constitutively expressed on engineered CHO K1 cells (UniProt Q15116 25-288, limits assumed); assay: MSD potency assay: competitive binding on CHO K1 cells expressing PD-1, inhibition of PD-L1-mFc binding, ECL; percent of reference material
T3 construct: whole, on cells; also called programmed cell death protein 1
Protocol: (§1) The Meso Scale Discovery (MSD) potency assay employs engineered CHO K1 cells constitutively expressing the PD-1 protein. […] The readout is measured using a specific detection antibody mixture that releases an electrochemiluminescence (ECL) signal that can be quantified.

[7] = target: T2, Neonatal Fc Receptor (FcRn); assay: FcRn binding assay, BIACORE (SPR); remark: listed apart in the source
[8] = target: T3, PD-1 protein constitutively expressed …; assay: MSD potency assay: competitive binding on CHO K1 cells expressing PD-1, inhibition of PD-L1-mFc binding, ECL; percent of reference material; remark: listed apart in the source
Protocol: as §1

[9] = target: T2, Neonatal Fc Receptor (FcRn); assay: FcRn binding assay, BIACORE (SPR); remark: listed apart in the source
[10] = target: T2, Neonatal Fc Receptor (FcRn); assay: FcRn binding assay, BIACORE (SPR); remark: listed apart in the source
[11] = target: T3, PD-1 protein constitutively expressed …; assay: MSD potency assay: competitive binding on CHO K1 cells expressing PD-1, inhibition of PD-L1-mFc binding, ECL; percent of reference material; remark: listed apart in the source
Protocol: as §1

[12] = target: T1, human PD-1 on PD-1 effector cells …; assay: cell-based or functional assay; remark: listed apart in the source
[13] = target: T1, human PD-1 on PD-1 effector cells …; assay: cell-based or functional assay; remark: listed apart in the source
[14] = target: T2, Neonatal Fc Receptor (FcRn); assay: FcRn binding assay, BIACORE (SPR); remark: listed apart in the source
[15] = target: T3, PD-1 protein constitutively expressed …; assay: MSD potency assay: competitive binding on CHO K1 cells expressing PD-1, inhibition of PD-L1-mFc binding, ECL; percent of reference material; remark: listed apart in the source
Protocol: as §1

[16] = target: T2, Neonatal Fc Receptor (FcRn); assay: FcRn binding assay, BIACORE (SPR); T0 (exposed to H2O2, no incubation)

T1 sequence (Q15116 25-288): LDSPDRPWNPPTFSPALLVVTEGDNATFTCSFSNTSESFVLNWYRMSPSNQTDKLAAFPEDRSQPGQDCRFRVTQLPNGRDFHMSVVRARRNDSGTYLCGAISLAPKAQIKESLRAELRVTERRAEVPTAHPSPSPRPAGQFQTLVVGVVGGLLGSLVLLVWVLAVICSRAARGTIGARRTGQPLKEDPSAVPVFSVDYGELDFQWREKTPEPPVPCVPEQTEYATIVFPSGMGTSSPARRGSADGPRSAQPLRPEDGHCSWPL
T3 sequence (Q15116 25-288 limits assumed, change not shown): as the sequence (Q15116 25-288) above

Relative Potency, Cell-Based Bioassay [1]: 98% | Kd [2]: 2140 nM | Kd [3]: 2140 nM | Relative Potency, Cell-Based Bioassay [4]: 98% | Relative Potency, Cell-Based Bioassay [5]: 98% | Relative Potency, MSD Binding [6]: 88% | Kd [7]: 2140 nM | Relative Potency, MSD Binding [8]: 88% | Kd [9]: 2140 nM | Kd [10]: 2140 nM | Relative Potency, MSD Binding [11]: 88% | Relative Potency, Cell-Based Bioassay [12]: 98% | Relative Potency (Potency by cell-based bioassay) [13]: 98% | Kd [14]: 2140 nM | Relative Potency, MSD Binding [15]: 88%
B1: Dostarlimab, Unstressed Control (antibody, human IgG4 S228P, kappa)
heavy: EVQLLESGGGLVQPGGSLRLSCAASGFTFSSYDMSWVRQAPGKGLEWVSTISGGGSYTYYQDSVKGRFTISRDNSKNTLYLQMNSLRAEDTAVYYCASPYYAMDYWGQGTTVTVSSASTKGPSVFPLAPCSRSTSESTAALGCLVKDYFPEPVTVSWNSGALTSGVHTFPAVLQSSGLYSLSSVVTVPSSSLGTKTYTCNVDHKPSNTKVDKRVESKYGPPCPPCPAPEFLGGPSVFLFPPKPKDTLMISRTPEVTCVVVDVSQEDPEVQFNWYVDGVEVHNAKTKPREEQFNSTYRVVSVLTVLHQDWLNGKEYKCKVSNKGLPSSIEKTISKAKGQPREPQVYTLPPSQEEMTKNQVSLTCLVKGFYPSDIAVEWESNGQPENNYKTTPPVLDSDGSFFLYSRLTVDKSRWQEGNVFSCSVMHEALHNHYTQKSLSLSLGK
light: DIQLTQSPSFLSAYVGDRVTITCKASQDVGTAVAWYQQKPGKAPKLLIYWASTLHTGVPSRFSGSGSGTEFTLTISSLQPEDFATYYCQHYSSYPWTFGQGTKLEIKRTVAAPSVFIFPPSDEQLKSGTASVVCLLNNFYPREAKVQWKVDNALQSGNSQESVTEQDSKDSTYSLSSTLTLSKADYEKHKVYACEVTHQGLSSPVTKSFNRGEC
modifications: percent of population: Met 248 oxidation 3.0; Asp 261/266/276 isomerization 1.0; Asn 311 deamidation 6.0; Asn 380 deamidation 8.4; Asn 430 deamidation 1.2; Lys 443 clipped 97.8
notes: Control of the forced degradation study (DS batch #1); HMW 0.9%

Relative Potency, Cell-Based Bioassay [5]: 94% | Kd [16]: 4380 nM | Relative Potency (Potency by cell-based bioassay) [13]: 94% | Relative Potency, MSD Binding [15]: 95%
B2: Dostarlimab, H2O2 treated, T0 (exposed to H2O2, no incubation) (antibody, human IgG4 S228P, kappa)
heavy: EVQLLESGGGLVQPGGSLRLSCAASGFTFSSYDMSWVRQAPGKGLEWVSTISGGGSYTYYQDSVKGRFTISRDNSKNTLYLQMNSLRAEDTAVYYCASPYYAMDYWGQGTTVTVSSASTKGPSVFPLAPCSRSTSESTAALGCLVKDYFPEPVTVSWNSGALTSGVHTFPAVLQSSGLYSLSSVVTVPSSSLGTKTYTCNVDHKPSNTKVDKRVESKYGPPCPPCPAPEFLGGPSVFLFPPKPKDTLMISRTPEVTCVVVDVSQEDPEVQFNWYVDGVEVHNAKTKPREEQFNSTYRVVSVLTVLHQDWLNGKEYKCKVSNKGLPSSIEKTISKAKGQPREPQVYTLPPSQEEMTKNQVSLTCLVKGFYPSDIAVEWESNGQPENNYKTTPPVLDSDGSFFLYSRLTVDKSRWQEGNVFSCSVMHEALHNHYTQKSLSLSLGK
light: B1 light
modifications: percent of population: Asn 137 deamidation 1.3; percent of population: Met 103 oxidation 1.2; Met 248 oxidation 47.1; Asn 311 deamidation 6.8; Met 354 oxidation 16.7; Asn 380 deamidation 10.7; Asn 385 deamidation 1.7; Met 424 oxidation 29.0; Lys 443 clipped 97.2
notes: 0.1% (v:v) H2O2, quenched at once with methionine; also called H2O2 T0; Peroxide (H2O2) Oxidation

Kd [10]: 2490 nM | Relative Potency (Potency by cell-based bioassay) [13]: 90%
B3: Dostarlimab, photo degraded, Vis light, 25° C., 1 week and UV light, 25° C., 1 week (antibody, human IgG4 S228P, kappa)
heavy: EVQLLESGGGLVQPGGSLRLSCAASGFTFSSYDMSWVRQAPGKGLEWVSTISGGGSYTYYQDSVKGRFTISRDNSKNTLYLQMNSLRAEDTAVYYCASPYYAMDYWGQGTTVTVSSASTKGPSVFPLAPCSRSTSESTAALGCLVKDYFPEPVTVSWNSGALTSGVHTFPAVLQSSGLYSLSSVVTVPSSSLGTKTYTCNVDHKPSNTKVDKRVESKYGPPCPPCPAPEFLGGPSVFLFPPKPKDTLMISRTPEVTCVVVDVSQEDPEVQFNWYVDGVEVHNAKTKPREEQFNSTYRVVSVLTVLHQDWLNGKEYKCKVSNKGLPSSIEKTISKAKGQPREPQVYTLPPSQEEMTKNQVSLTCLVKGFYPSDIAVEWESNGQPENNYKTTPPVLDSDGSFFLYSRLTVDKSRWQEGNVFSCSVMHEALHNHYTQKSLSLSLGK
light: B1 light
modifications: percent of population: Trp 50 oxidation 4.8; percent of population: Met 248 oxidation 33.4; Asp 261/266/276 isomerization 1.0; Asn 311 deamidation 6.4; Met 354 oxidation 10.9; Asn 380 deamidation 9.5; Asn 385 deamidation 1.3; Met 424 oxidation 27.0; Asn 430 deamidation 1.2; Lys 443 clipped 97.8
notes: Mixture; HMW 3.3%; also called Photolysis

— US20230059341A1 (TESARO, published 2023)
